Results from article PMC11172311, “Structural and Interactional Analysis of the Flavonoid Pathway Proteins: Chalcone Synthase, Chalcone Isomerase and Chalcone Isomerase-like Protein” (International Journal of Molecular Sciences, 2024).
Values belong to the substance of their own block, whether it stands above or below them.

Assays:
[1] = target: Panicum virgatum chalcone synthase (PvCHS) (Panicum virgatum)
[2] = target: Panicum virgatum chalcone synthase (PvCHS) (Panicum virgatum); experiment: ITC; PvCHS in the well, PvCHIL in the syringe; 22 injections of 2 µL; PBS; no small molecule added
[3] = target: Panicum virgatum chalcone synthase (PvCHS) (Panicum virgatum); experiment: ITC; PvCHS in the well, PvCHIL in the syringe; 22 injections of 2 µL; PBS; with naringenin at 5x molar excess
[4] = target: Panicum virgatum chalcone synthase (PvCHS) (Panicum virgatum); experiment: ITC; PvCHS in the well, PvCHIL in the syringe; 22 injections of 2 µL; PBS; with naringenin chalcone at 5x molar excess
[5] = target: Panicum virgatum chalcone synthase (PvCHS) (Panicum virgatum); experiment: ITC; PvCHS in the well, PvCHIL in the syringe; 22 injections of 2 µL; PBS; no small molecule added; remark: listed apart in the source
[6] = target: Panicum virgatum chalcone synthase (PvCHS) (Panicum virgatum); remark: listed apart in the source
[7] = target: Panicum virgatum chalcone synthase (PvCHS) (Panicum virgatum); experiment: crystal structure; PvCHS co-crystallised with naringenin and CoA, space group P1, four molecules in the unit cell; hanging drop, 277 K; data at 100 K
[8] = target: Panicum virgatum chalcone isomerase-like protein (PvCHIL) (Panicum virgatum); experiment: FRET or BRET; PvCHIL labelled with ATTO 488 (donor) held at 1 µM, PvCHS labelled with ATTO 550 (acceptor) gradually increased; PBS pH 7.4; spectra in triplicate
[9] = target: Panicum virgatum chalcone isomerase (PvCHI) (Panicum virgatum); experiment: FRET or BRET; PvCHI labelled with ATTO 488 (donor) held at 1 µM, PvCHS labelled with ATTO 647N (acceptor) gradually increased (0.5 to 10 µM); PBS pH 7.4; spectra in triplicate

Vmax of PvCHS for p-coumaroyl-CoA (naringenin plus naringenin chalcone formed) in the presence of PvCHI against PvCHS alone [1]: 24 fold
Vmax of PvCHS for p-coumaroyl-CoA in the three-protein system (PvCHS, PvCHI and PvCHIL) against PvCHS alone; PvCHIL does not compete with PvCHI [1]: 437 fold
Substance: Panicum virgatum chalcone isomerase (PvCHI) (enzyme)

Kd [2]: 76.3 µM
dH [2]: 31.8 kcal/mol
Kd [3]: 7.46 µM
dH [3]: 5.34 kcal/mol
Kd [4]: 170 µM
dH [4]: 36.4 kcal/mol
dH [5]: 31.9 kcal/mol
Vmax of PvCHS for p-coumaroyl-CoA in the presence of PvCHIL (5:1 molar ratio) against PvCHS alone [6]: 7.7 fold
Substance: Panicum virgatum chalcone isomerase-like protein (PvCHIL) (natural protein)

stoichiometry N [7]: 2
Kd [8]: 26.5 µM
Kd [9]: 0.637 µM
Substance: Panicum virgatum chalcone synthase (PvCHS) (enzyme)
